“And” between values parts separate entries of the source, which are not always exact repeats. Identical values can stand only once.
How the values were obtained:
HaloTag-FYB (human) = HaloTag-FYB (human) (UniProt O15117); test: pull-down + split reporter (BiFC, NanoBiT); HaloTag-fused hook captured from HEK293T lysate on HaloLink resin, 6 washes with PBS 0.1% Tween; luminescence of the co-expressed GPCA pair on the resin; ratio of cells with the HaloTag vector to cells with the pCNeo vector expressing the same protein
[1] = biological target: SKAP2N1 (SKAP2 with Gaussia princeps luciferase fragment 1 at its N-terminal end) (UniProt O75563); test: GPCA; conditions: read off a plot
[2] = biological target: FYB fused N-terminally to Gaussia princeps luciferase fragment 1, O15117-3; test: GPCA; conditions: read off a plot
Chain of FYB fused N-terminally to Gaussia princeps luciferase fragment 1, O15117-3 (O15117 other isoform, or with tags, fused parts or gaps): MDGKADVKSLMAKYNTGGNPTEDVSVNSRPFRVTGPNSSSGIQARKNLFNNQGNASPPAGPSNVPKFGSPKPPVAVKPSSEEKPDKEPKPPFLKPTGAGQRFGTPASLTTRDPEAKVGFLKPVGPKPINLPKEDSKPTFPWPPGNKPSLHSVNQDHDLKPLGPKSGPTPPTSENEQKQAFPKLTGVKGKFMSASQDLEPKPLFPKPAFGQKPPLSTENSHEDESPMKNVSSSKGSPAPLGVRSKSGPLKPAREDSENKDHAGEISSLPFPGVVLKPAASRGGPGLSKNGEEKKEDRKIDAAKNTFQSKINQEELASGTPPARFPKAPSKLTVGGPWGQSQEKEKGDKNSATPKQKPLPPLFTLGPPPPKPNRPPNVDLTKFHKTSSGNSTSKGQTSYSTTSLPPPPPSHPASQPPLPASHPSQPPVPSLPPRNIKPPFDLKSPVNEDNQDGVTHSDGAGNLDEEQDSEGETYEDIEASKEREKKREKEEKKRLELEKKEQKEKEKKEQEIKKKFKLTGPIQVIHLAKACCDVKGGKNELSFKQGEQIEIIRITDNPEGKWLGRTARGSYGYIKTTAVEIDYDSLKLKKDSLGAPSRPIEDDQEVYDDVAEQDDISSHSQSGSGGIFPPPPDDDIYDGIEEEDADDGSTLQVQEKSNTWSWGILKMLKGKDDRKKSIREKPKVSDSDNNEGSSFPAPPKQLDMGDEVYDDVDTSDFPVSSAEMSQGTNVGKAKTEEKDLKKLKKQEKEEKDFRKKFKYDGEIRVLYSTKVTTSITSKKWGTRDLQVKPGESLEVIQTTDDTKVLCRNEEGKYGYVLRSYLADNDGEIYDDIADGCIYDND

luminescence ratio (HaloTag vector to pCNeo control) (HaloTag-FYB (human)) | response ([1]; with A23187, parent: est. 320) [NLR] | response ([1]; without A23187 (NT), parent: est. 240) [NLR] | response ([2]; HCK-P249A 0 ng, with A23187, parent: est. 850) [NLR] | response ([2]; HCK-P249A 0 ng, without A23187, parent: est. 280) [NLR] | response ([2]; HCK-P249A 25 ng, with A23187, parent: est. 1000) [NLR] | response ([2]; HCK-P249A 25 ng, without A23187, parent: est. 190) [NLR] | response ([2]; HCK-P249A 50 ng, with A23187, parent: est. 730) [NLR] | response ([2]; HCK-P249A 50 ng, without A23187, parent: est. 540) [NLR] | response ([2]; HCK-P249A 100 ng, with A23187, parent: est. 480) [NLR] | response ([2]; HCK-P249A 100 ng, without A23187, parent: est. 570) [NLR] | response ([2]; with A23187, parent: est. 760) [NLR] | response ([2]; without A23187 (NT), parent: est. 390) [NLR] | Substance
49.1 and 135 and 51.8 |  |  |  |  |  |  |  |  |  |  |  |  | SKAP2 homo-dimer of two hemi-luciferase-fused SKAP2 (the pair generating the luciferase signal) (from UniProt O75563 1-359) (complex)
 | 4.9 | 2.2 | 2000 | 1000 | 2500 | 570 | 1900 | 1400 | 1300 | 1500 | 1500 | 540 | SKAP2 V24D; F27D; V28E
125 and 308 and 160 |  |  |  |  |  |  |  |  |  |  |  |  | SKAP2-DIMPH hetero-dimer of hemi-luciferase-fused DIMPH and hemi-luciferase-fused SKAP2 (from UniProt O75563 1-222; O75563 1-359) (complex)
